Columns and labels:
Assay in all cases: SPR
[1] = molecular target: FcγRIIIa-158V, FcγRIIIa-CHO^WT (human)
[2] = molecular target: FcγRIIIa-158V, FcγRIIIa-G2FS(2-3) (human)
[3] = molecular target: FcγRIIIa-158V, FcγRIIIa-Hybrid (human)
[4] = molecular target: FcγRIIIa-158V, FcγRIIIa-Monoantennae (human)
[5] = molecular target: FcγRIIIa-158V, FcγRIIIa-Oligomannose (human)
[6] = molecular target: FcγRIIIa-158V, FcγRIIIa-G2FS(2-6) (human)
[7] = molecular target: FcγRIIIa-158V, FcγRIIIa-HEK^WT (human)
Chain of FcγRIIIa-158V, FcγRIIIa-HEK^WT (human) (P08637 17-208 F176V): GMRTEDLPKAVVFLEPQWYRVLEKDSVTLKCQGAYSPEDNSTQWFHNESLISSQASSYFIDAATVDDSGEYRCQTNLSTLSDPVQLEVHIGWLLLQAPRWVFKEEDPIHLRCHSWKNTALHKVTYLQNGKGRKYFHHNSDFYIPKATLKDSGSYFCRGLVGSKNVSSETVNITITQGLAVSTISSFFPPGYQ

[8] = molecular target: FcγRIIIa-158V, FcγRIIIa-Afucosylated (human)
Chain of FcγRIIIa-158V, FcγRIIIa-Afucosylated (human) (P08637 17-208 F176V): as above

[9] = molecular target: FcγRIIIa-158F-Afucosylated (human) (UniProt P08637)
Chain of FcγRIIIa-158F-Afucosylated (human) (P08637 17-208): as the sequence (P08637 17-208 F176V) above, with V160F counted along it

[10] = molecular target: FcγRIIIa-158F-CHO^WT (soluble FcγRIIIa, allotype 158F, from wild-type CHO) (human) (UniProt P08637)
Chain of FcγRIIIa-158F-CHO^WT (soluble FcγRIIIa, allotype 158F, from wild-type CHO) (human) (P08637 17-208): as the sequence (P08637 17-208 F176V) above, with V160F counted along it

[11] = molecular target: FcγRIIIa-158F-G2FS(2-3) (human) (UniProt P08637)
Chain of FcγRIIIa-158F-G2FS(2-3) (human) (P08637 17-208): as the sequence (P08637 17-208 F176V) above, with V160F counted along it

[12] = molecular target: FcγRIIIa-158F-HEK^WT (human) (UniProt P08637)
Chain of FcγRIIIa-158F-HEK^WT (human) (P08637 17-208): as the sequence (P08637 17-208 F176V) above, with V160F counted along it

[13] = molecular target: FcγRIIIa-158F-Hybrid (human) (UniProt P08637)
Chain of FcγRIIIa-158F-Hybrid (human) (P08637 17-208): as the sequence (P08637 17-208 F176V) above, with V160F counted along it

[14] = molecular target: FcγRIIIa-158F-Monoantennae (human) (UniProt P08637)
Chain of FcγRIIIa-158F-Monoantennae (human) (P08637 17-208): as the sequence (P08637 17-208 F176V) above, with V160F counted along it

[15] = molecular target: FcγRIIIa-158V-Afucosylated (human)
[16] = molecular target: FcγRIIIa-158V-G2FS(2-3) (human)
[17] = molecular target: FcγRIIIa-158V-G2FS(2-6) (human)
[18] = molecular target: FcγRIIIa-158V-HEK^WT (human)
[19] = molecular target: FcγRIIIa-158V-Hybrid (human)
[20] = molecular target: FcγRIIIa-158V-Monoantennae (human)
[21] = molecular target: FcγRIIIa-158V-Oligomannose (human)
[22] = molecular target: biotinylated, recombinant, human FcγRIIIa-158V from SinoBiological (human)
[23] = molecular target: FcγRIIIa-158F-G2FS(2-6) (human) (UniProt P08637)
Chain of FcγRIIIa-158F-G2FS(2-6) (human) (P08637 17-208): as the sequence (P08637 17-208 F176V) above, with V160F counted along it

[24] = molecular target: FcγRIIIa-158V-CHO^WT (soluble FcγRIIIa, allotype 158V, from wild-type CHO) (human)
[25] = molecular target: biotinylated, recombinant, human FcγRIIIa-158F from SinoBiological (human) (UniProt P08637)
Chain of biotinylated, recombinant, human FcγRIIIa-158F from SinoBiological (human) (P08637 17-208): as the sequence (P08637 17-208 F176V) above, with V160F counted along it

Chain of FcγRIIIa-158V, FcγRIIIa-G2FS(2-6) (human) (P08637 17-208 F176V): as the sequence (P08637 17-208 F176V) above
Chain of FcγRIIIa-158V, FcγRIIIa-G2FS(2-3) (human) (P08637 17-208 F176V): as above
Chain of FcγRIIIa-158V, FcγRIIIa-Hybrid (human) (P08637 17-208 F176V): as above
Chain of FcγRIIIa-158V, FcγRIIIa-CHO^WT (human) (P08637 17-208 F176V): as above
Chain of FcγRIIIa-158V, FcγRIIIa-Monoantennae (human) (P08637 17-208 F176V): as above
Chain of FcγRIIIa-158V, FcγRIIIa-Oligomannose (human) (P08637 17-208 F176V): as above

Work on “IgG1-G0 (mAb SO57, afucosylated, agalactosylated)” yielded a Kd [1] of 37 nM, a Kd [2] of 38 nM and a Kd [3] of 33 nM. For the same substance, the Kd [4] was 38 nM and the Kd [5] was 14 nM.

“IgG1-G2FS(2-3) (mAb SO57, α2-3 linked Sia)” showed a Kd [1] of 290 nM, a Kd [6] of 260 nM and a Kd [7] of 260 nM. For the same substance, the Kd [3] was 300 nM and the Kd [4] was 310 nM.

IgG1-Oligomannose (mAb SO57, Man5) showed a Kd [8] of 88 nM, a Kd [6] of 80 nM and a Kd [7] of 87 nM. It also gave a Kd [5] of 38 nM.

For IgG1-Oligomannose (mAb SO57) (antibody), the Kd [9] was 406 nM, the Kd [10] was 582 nM and the Kd [11] was 480 nM. For the same substance, the Kd [12] was 383 nM, the Kd [13] was 405 nM and the Kd [14] was 428 nM. For the same substance, the Kd [15] was 88.3 nM, the Kd [16] was 123 nM and the Kd [17] was 79.6 nM. It also gave a Kd [18] of 87.2 nM, a Kd [19] of 104 nM and a Kd [20] of 109 nM. It also gave a Kd [21] of 37.6 nM and a Kd [22] of 93.2 nM.

IgG1-G2F (mAb SO57) (antibody) was tested, and the Kd [9] was 1210 nM, the Kd [10] was 1860 nM and the Kd [11] was 1370 nM. For the same substance, the Kd [23] was 851 nM, the Kd [12] was 1150 nM and the Kd [13] was 1210 nM. It also gave a Kd [14] of 1270 nM, a Kd [15] of 270 nM and a Kd [24] of 278 nM. It also gave a Kd [16] of 377 nM, a Kd [17] of 262 nM and a Kd [18] of 263 nM. The Kd [19] was 297 nM, the Kd [20] was 305 nM and the Kd [25] was 965 nM.

With “IgG1-CHO^WT (anti-rabies human IgG1 mAb SO57 from wild-type CHO) (antibody)” the Kd [9] was 2330 nM, the Kd [10] was 3490 nM and the Kd [11] was 2540 nM. The Kd [23] was 1680 nM, the Kd [12] was 2160 nM and the Kd [13] was 2220 nM. It also gave a Kd [14] of 2350 nM, a Kd [15] of 464 nM and a Kd [24] of 489 nM. It also gave a Kd [16] of 624 nM, a Kd [17] of 443 nM and a Kd [18] of 440 nM. The Kd [19] was 456 nM, the Kd [20] was 489 nM and the Kd [21] was 242 nM. The Kd [25] was 1780 nM and the Kd [22] was 440 nM.

Substance IgG1-G2F (mAb SO57, galactosylated) has a Kd [8] of 270 nM, a Kd [2] of 380 nM and a Kd [6] of 260 nM. It also gave a Kd [7] of 260 nM, a Kd [3] of 300 nM and a Kd [4] of 300 nM.

Substance IgG1-Hybrid (mAb SO57, hybrid N-glycan) has a Kd [8] of 810 nM, a Kd [1] of 870 nM and a Kd [2] of 1100 nM. The Kd [7] was 690 nM, the Kd [3] was 470 nM and the Kd [5] was 400 nM.

Substance IgG1-G2FS(2-6) (mAb SO57) (antibody) has a Kd [9] of 964 nM, a Kd [10] of 1860 nM and a Kd [11] of 1240 nM. The Kd [12] was 1050 nM, the Kd [13] was 1110 nM and the Kd [14] was 1110 nM. For the same substance, the Kd [15] was 260 nM, the Kd [16] was 398 nM and the Kd [18] was 261 nM. For the same substance, the Kd [19] was 281 nM, the Kd [20] was 289 nM and the Kd [21] was 145 nM. The Kd [22] was 275 nM.

For IgG1-Monoantennae (mAb SO57) (antibody), the Kd [15] was 698 nM, the Kd [24] was 635 nM and the Kd [16] was 935 nM. It also gave a Kd [17] of 755 nM, a Kd [18] of 643 nM and a Kd [19] of 742 nM. For the same substance, the Kd [20] was 731 nM, the Kd [21] was 375 nM and the Kd [25] was 3260 nM. For the same substance, the Kd [22] was 761 nM.

In the case of IgG1-Hybrid (mAb SO57) (antibody), the Kd [9] is reported as 2210 nM, the Kd [10] is reported as 4610 nM and the Kd [12] is reported as 2510 nM. It also gave a Kd [13] of 2660 nM, a Kd [14] of 2200 nM and a Kd [15] of 808 nM. For the same substance, the Kd [24] was 869 nM, the Kd [16] was 1070 nM and the Kd [17] was 573 nM. For the same substance, the Kd [18] was 693 nM, the Kd [19] was 471 nM and the Kd [20] was 426 nM. For the same substance, the Kd [21] was 399 nM, the Kd [25] was 2230 nM and the Kd [22] was 598 nM.

Work on IgG1-G2FS(2-3) (mAb SO57) (antibody) yielded a Kd [9] of 1220 nM, a Kd [10] of 1880 nM and a Kd [11] of 1330 nM. It also gave a Kd [23] of 832 nM, a Kd [12] of 1190 nM and a Kd [13] of 1220 nM. For the same substance, the Kd [14] was 1340 nM, the Kd [15] was 275 nM and the Kd [24] was 288 nM. For the same substance, the Kd [16] was 385 nM, the Kd [17] was 259 nM and the Kd [18] was 259 nM. It also gave a Kd [19] of 302 nM, a Kd [20] of 312 nM and a Kd [21] of 143 nM. For the same substance, the Kd [25] was 953 nM and the Kd [22] was 275 nM.

For “IgG1-G2FS(2-6) (mAb SO57, α2-6 linked Sia)”, the Kd [8] was 260 nM, the Kd [2] was 400 nM and the Kd [7] was 260 nM. It also gave a Kd [4] of 290 nM.

With “IgG1-Monoantennae (mAb SO57, monoantennary N-glycan)” the Kd [8] was 700 nM, the Kd [1] was 640 nM and the Kd [2] was 930 nM. The Kd [6] was 750 nM, the Kd [7] was 640 nM and the Kd [3] was 740 nM. For the same substance, the Kd [4] was 730 nM and the Kd [5] was 380 nM.

With IgG1-G0 (mAb SO57) (antibody) the Kd [9] was 164 nM, the Kd [10] was 213 nM and the Kd [11] was 184 nM. For the same substance, the Kd [14] was 170 nM, the Kd [15] was 29.6 nM and the Kd [24] was 36.9 nM. The Kd [17] was 29.7 nM, the Kd [19] was 33 nM and the Kd [20] was 37.6 nM. It also gave a Kd [21] of 14.2 nM and a Kd [22] of 32.9 nM.

— article PMC9524020
